{"source": "paper PMC10539383", "about": "“Recognition and cleavage mechanism of intron-containing pre-tRNA by human TSEN endonuclease complex”", "binders": {"B1": {"name": "pre-tRNAArgTCT (structured_RNA)", "RNA": "GGGGGCUCUGUGGCGCAAUGGAUAGCGCAUUGGACUUCUAGUGACGAAUAGAGCAAUUCAAAGGUUGUGGGUUCGAAUCCCACCAGAGUCG"}}, "target": "T1, TSEN2;TSEN34;TSEN15;TSEN54 (Homo sapiens;Homo sapiens;Homo …, UniProt Q8NCE0;Q9BSV6;Q8WW01;Q7Z6J9 1-465;1-310;1-171;1-526, |||)", "T1 sequence 1": "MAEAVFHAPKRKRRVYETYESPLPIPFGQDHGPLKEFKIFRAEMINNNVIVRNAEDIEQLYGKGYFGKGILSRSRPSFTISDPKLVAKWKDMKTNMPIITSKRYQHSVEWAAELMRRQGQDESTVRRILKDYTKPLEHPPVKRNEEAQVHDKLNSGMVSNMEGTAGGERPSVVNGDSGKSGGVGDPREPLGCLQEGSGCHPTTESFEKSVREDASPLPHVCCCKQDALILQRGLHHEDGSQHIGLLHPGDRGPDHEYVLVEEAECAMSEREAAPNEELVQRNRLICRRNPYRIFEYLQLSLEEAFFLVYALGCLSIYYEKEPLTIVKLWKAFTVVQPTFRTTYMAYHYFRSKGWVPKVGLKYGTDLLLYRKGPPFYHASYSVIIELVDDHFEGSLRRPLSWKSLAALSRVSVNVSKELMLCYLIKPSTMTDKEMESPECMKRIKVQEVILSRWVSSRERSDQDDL", "T1 sequence 2": "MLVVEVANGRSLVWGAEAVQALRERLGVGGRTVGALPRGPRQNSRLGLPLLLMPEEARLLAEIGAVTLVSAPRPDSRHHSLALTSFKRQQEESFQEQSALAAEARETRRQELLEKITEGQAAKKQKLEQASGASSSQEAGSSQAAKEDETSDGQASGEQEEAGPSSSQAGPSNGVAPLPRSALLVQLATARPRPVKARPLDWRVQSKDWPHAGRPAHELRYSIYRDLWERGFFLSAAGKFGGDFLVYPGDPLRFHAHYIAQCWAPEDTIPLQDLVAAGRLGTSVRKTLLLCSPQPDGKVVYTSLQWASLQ", "T1 sequence 3": "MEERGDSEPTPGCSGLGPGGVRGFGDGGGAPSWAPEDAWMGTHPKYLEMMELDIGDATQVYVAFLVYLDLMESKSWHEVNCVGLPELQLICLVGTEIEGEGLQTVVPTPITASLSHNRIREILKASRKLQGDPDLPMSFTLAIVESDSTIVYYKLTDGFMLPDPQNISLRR", "T1 sequence 4": "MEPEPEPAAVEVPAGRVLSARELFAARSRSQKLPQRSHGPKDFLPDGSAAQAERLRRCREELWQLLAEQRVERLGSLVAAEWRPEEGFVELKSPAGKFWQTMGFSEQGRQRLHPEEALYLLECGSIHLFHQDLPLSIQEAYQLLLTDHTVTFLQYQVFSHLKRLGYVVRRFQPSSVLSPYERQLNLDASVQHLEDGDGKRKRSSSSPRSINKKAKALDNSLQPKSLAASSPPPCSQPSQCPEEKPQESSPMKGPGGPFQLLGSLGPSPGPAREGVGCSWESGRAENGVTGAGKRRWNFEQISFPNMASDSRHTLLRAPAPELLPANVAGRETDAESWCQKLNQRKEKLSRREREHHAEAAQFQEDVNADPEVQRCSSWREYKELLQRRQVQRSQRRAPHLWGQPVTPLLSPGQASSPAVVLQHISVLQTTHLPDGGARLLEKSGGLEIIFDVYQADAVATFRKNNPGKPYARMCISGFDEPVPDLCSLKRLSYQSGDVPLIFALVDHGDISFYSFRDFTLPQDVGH", "assay": "cryo-EM structure (3.2 A); wild-type active complex; Protein (EM) buffer: 20 mM HEPES pH 8.0, 150 mM NaCl, 1 mM MgCl2, 5 mM DTT; complex formation conditions and temperature not in the material", "settings": "protein: recombinant;recombinant;recombinant;recombinant; tags: none stated;none stated;N-terminal 6xHis;N-terminal GST removed by TEV; copies: 1;1;1;1; pre-tRNA fold, single strand with anticodon-intron stem and 3' bulge"}
{"binder": "B1", "values": [{"measurement": "binding result", "value": "binds"}]}
